Data reported in PMC9489729, “The AAA+ ATPase RavA and its binding partner ViaA modulate E. coli aminoglycoside sensitivity through interaction with the inner membrane” (Nature Communications, 2022).

How the values were obtained:
[1] = biological target: T1, C-terminally His-tagged RavA (E. coli, UniProt P31473 1-498); assay: BLI; Supplementary Fig. 1: biotinylated His-NTV-AviTag or ViaA immobilised on streptavidin biosensors, RavA or RavAΔLARA in solution; HBS kinetics buffer, 293 K; the methods say 1 mM ADP was added with RavA or RavAΔLARA; conditions: both partners purified
T1 construct: RavA, MoxR AAA+ ATPase, E. coli K-12 MG1655; It cites earlier work for RavA being a hexamer with ADP or ATP and partly monomeric without nucleotide; also called apo-RavA; not shown: His tag, C-terminal, kept

[2] = biological target: T1, C-terminally His-tagged RavA; assay: BLI; biotinylated ViaA construct immobilised on streptavidin biosensors, ligand in solution, no nucleotide added; HBS kinetics buffer (25 mM HEPES pH 7.5, 300 mM NaCl, 10 mM MgCl2, 10 % glycerol, 0.1% BSA, 0.02% Tween-20), 293 K, Octet RED96; 1:1 model; conditions: both partners purified
[3] = biological target: T1, C-terminally His-tagged RavA; assay: BLI; biotinylated ViaA construct immobilised on streptavidin biosensors, RavA in solution with 1 mM ADP (pre-incubated 10 min); HBS kinetics buffer, 293 K; 1:1 model; conditions: both partners purified
[4] = biological target: the molecule itself; assay: SAXS; AviTag-ViaA-His at 3 mg/mL, 25 mM HEPES pH 7.5, 300 mM NaCl, 10 mM MgCl2, 10 % glycerol, 20 °C; MW by SAXSMoW and ScÅtter
[5] = biological target: the molecule itself; assay: SEC-MALS; Superdex 200 increase 10/300 GL, 4 °C, 25 mM HEPES pH 7.5, 300 mM NaCl, 10 mM MgCl2, 10 % glycerol; AviTag-ViaA-His 80 µL at 3 mg/mL, His-NTV-AviTag 80 µL at 2 mg/mL

T1 sequence (P31473 whole entry): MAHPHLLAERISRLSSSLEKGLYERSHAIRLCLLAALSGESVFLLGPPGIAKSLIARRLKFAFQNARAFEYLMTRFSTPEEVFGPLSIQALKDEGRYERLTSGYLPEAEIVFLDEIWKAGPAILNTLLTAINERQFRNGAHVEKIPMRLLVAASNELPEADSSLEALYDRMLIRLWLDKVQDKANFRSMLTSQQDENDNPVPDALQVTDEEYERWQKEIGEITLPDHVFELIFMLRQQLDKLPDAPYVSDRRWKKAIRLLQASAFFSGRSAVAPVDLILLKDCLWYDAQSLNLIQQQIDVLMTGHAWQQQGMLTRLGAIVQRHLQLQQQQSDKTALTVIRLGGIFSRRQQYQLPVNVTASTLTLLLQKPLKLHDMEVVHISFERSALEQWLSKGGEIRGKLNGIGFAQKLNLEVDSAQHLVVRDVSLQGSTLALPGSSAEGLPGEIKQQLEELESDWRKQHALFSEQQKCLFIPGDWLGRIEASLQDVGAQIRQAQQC

Row | binding result [1] | Kd [2] | Kd [3] | Binder | stoichiometry N [4] | stoichiometry N [5]
1 | binds | – | – | His-NTV-AviTag (domain or fragment, E. coli, UniProt P0ADN0 1-319, looked up, biotinylated for the BLI binding studies (50 μM D-biotin added to the LB medium during expression), ViaA, E. coli, N-terminal domain (NTV), residues 1-319; also called N-Terminal domain of ViaA; source: E. coli, expressed and purified as the ViaA constructs (NiNTA IMAC, desalting, SEC)) MLTLDTLNVMLAVSEEGLIEEMIIALLASPQLAVFFEKFPRLKAAITDDVPRWREALRSRLKDARVPPELTEEVMCYQQSQLLSTPQFIVQLPQILDLLHRLNSPWAEQARQLVDANSTITSALHTLFLQRWRLSLIVQATTLNQQLLEEEREQLLSEVQERMTLSGQLEPILADNNTAAGRLWDMSAGQLKRGDYQLIVKYGEFLNEQPELKRLAEQLGRSREAKSIPRNDAQMETFRTMVREPATVPEQVDGLQQSDDILRLLPPELATLGITELEYEFYRRLVEKQLLTYRLHGESWREKVIERPVVHKDYDEQPR | – | –
2 | – | 11 µM | ~2.2 µM | His-ViaA-AviTag (natural protein, E. coli, UniProt P0ADN0 1-483, looked up, biotinylated for the BLI binding studies (50 μM D-biotin added to the LB medium during expression), ViaA, E. coli, residues 1-483, cloned in the p11-Toronto1 vector; also called C-terminally AviTagged ViaA; source: E. coli BL21 (DE3), purified (NiNTA IMAC, desalting, SEC); not shown: His6, N-terminal, kept) MLTLDTLNVMLAVSEEGLIEEMIIALLASPQLAVFFEKFPRLKAAITDDVPRWREALRSRLKDARVPPELTEEVMCYQQSQLLSTPQFIVQLPQILDLLHRLNSPWAEQARQLVDANSTITSALHTLFLQRWRLSLIVQATTLNQQLLEEEREQLLSEVQERMTLSGQLEPILADNNTAAGRLWDMSAGQLKRGDYQLIVKYGEFLNEQPELKRLAEQLGRSREAKSIPRNDAQMETFRTMVREPATVPEQVDGLQQSDDILRLLPPELATLGITELEYEFYRRLVEKQLLTYRLHGESWREKVIERPVVHKDYDEQPRGPFIVCVDTSGSMGGFNEQCAKAFCLALMRIALAENRRCYIMLFSTEIVRYELSGPQGIEQAIRFLSQQFRGGTDLASCFRAIMERLQSREWFDADAVVISDFIAQRLPDDVTSKVKELQRVHQHRFHAVAMSAHGKPGIMRIFDHIWRFDTGMRSRLLRRWRR | – | –
3 | – | 18.9 µM | ~2.2 µM | AviTag-ViaA-His (natural protein, E. coli, UniProt P0ADN0 1-483, looked up, biotinylated for the BLI binding studies (50 μM D-biotin added to the LB medium during expression), ViaA, E. coli K-12 MG1655, VWA domain protein, residues 1-483 (NTV 1-319, CTV/VWA domain 320-483), cloned in pET22b; Dimer by SEC-MALLS and SAXS; Theoretical MW of the construct is 60.4 kDa; also called AVI-ViaA-HIS; N-terminally AviTagged ViaA; source: E. coli BL21 (DE3), purified (NiNTA IMAC, desalting, SEC); not shown: AviTag, N-terminal, kept; His tag, C-terminal, kept) MLTLDTLNVMLAVSEEGLIEEMIIALLASPQLAVFFEKFPRLKAAITDDVPRWREALRSRLKDARVPPELTEEVMCYQQSQLLSTPQFIVQLPQILDLLHRLNSPWAEQARQLVDANSTITSALHTLFLQRWRLSLIVQATTLNQQLLEEEREQLLSEVQERMTLSGQLEPILADNNTAAGRLWDMSAGQLKRGDYQLIVKYGEFLNEQPELKRLAEQLGRSREAKSIPRNDAQMETFRTMVREPATVPEQVDGLQQSDDILRLLPPELATLGITELEYEFYRRLVEKQLLTYRLHGESWREKVIERPVVHKDYDEQPRGPFIVCVDTSGSMGGFNEQCAKAFCLALMRIALAENRRCYIMLFSTEIVRYELSGPQGIEQAIRFLSQQFRGGTDLASCFRAIMERLQSREWFDADAVVISDFIAQRLPDDVTSKVKELQRVHQHRFHAVAMSAHGKPGIMRIFDHIWRFDTGMRSRLLRRWRR | 2 | ~2
